These results are taken from patent US20150299301A1 (published 2015).

This assay concerns the target T1, mouse serum albumin (mouse, UniProt P07724 25-608).
T1 construct: also called MSA; mouse albumin
Nature of the assay: phage on blotted plasma (1/10).

T1 sequence (P07724 25-608 limits assumed): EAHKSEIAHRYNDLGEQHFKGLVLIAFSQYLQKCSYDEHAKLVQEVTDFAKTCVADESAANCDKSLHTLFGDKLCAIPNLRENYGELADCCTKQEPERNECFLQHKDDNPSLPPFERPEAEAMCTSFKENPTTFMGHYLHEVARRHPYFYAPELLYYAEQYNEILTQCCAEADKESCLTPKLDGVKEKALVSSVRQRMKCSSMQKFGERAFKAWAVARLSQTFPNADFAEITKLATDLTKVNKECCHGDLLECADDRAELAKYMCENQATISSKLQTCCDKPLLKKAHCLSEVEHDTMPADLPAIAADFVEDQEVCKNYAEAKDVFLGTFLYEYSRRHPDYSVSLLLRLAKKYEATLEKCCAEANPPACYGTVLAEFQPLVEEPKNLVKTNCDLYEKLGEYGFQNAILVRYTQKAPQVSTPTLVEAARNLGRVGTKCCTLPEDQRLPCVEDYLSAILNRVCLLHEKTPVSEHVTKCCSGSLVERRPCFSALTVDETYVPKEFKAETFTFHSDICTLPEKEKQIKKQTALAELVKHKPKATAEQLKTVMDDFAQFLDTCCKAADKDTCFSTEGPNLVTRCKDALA
Method: A SDS-PAGE was run for plasma (1/10 dilution) from different species (baboon, pig, hamster, human, rat. mouse and rabbit) and blotted on a nitrocellulose membrane. Phages were prepared for clones MSA 21. […] Phages were allowed to bind to the nitrocellulose blotted serum albumins and unbound phages were washed away. Binding was detected with a anti-M13 polyclonal antibody coupled to HRP. DAP was used as a substrate for detection.

B1: MSA24 (VHH)
VHH: QVQLQESGGGLVQPGNSLRLSCAASGFTFRNFGMSWVRQAPGKEPEWVSSISGSGSNTIYADSVKDRFTISRDNAKSTLYLQMNSLKPEDTAVYYCTIGGSLSRSSQGTQVTVSS
Take B1: the binding result is reported as “binds”.
